Experimental findings from paper PMC11096414 are described below.

The assay deals with Flag-tagged MAVS wt, Q7Z434. Put plainly: co-IP. Particulars: remark: other sources report otherwise.
Chain of Flag-tagged MAVS wt, Q7Z434 (Q7Z434 whole entry): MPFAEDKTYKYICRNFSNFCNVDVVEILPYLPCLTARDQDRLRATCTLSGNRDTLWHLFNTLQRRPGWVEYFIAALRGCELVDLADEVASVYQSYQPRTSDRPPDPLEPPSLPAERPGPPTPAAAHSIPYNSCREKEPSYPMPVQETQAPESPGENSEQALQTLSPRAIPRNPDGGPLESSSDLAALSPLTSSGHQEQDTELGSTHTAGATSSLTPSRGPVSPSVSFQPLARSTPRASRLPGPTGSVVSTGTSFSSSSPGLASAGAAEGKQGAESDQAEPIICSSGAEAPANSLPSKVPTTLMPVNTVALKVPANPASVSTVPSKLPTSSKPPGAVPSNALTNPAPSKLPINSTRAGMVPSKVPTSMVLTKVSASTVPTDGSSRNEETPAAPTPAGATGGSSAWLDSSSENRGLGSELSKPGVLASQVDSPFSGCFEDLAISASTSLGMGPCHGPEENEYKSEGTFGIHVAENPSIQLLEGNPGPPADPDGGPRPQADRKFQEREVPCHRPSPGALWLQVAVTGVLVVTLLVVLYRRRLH

B1: GFP-tagged RIG-I, O95786 1-925 (natural protein)
chain: MTTEQRRSLQAFQDYIRKTLDPTYILSYMAPWFREEEVQYIQAEKNNKGPMEAATLFLKFLLELQEEGWFRGFLDALDHAGYSGLYEAIESWDFKKIEKLEEYRLLLKRLQPEFKTRIIPTDIISDLSECLINQECEEILQICSTKGMMAGAEKLVECLLRSDKENWPKTLKLALEKERNKFSELWIVEKGIKDVETEDLEDKMETSDIQIFYQEDPECQNLSENSCPPSEVSDTNLYSPFKPRNYQLELALPAMKGKNTIICAPTGCGKTFVSLLICEHHLKKFPQGQKGKVVFFANQIPVYEQQKSVFSKYFERHGYRVTGISGATAENVPVEQIVENNDIIILTPQILVNNLKKGTIPSLSIFTLMIFDECHNTSKQHPYNMIMFNYLDQKLGGSSGPLPQVIGLTASVGVGDAKNTDEALDYICKLCASLDASVIATVKHNLEELEQVVYKPQKFFRKVESRISDKFKYIIAQLMRDTESLAKRICKDLENLSQIQNREFGTQKYEQWIVTVQKACMVFQMPDKDEESRICKALFLYTSHLRKYNDALIISEHARMKDALDYLKDFFSNVRAAGFDEIEQDLTQRFEEKLQELESVSRDPSNENPKLEDLCFILQEEYHLNPETITILFVKTRALVDALKNWIEGNPKLSFLKPGILTGRGKTNQNTGMTLPAQKCILDAFKASGDHNILIATSVADEGIDIAQCNLVILYEYVGNVIKMIQTRGRGRARGSKCFLLTSNAGVIEKEQINMYKEKMMNDSILRLQTWDEAVFREKILHIQTHEKFIRDSQEKPKPVPDKENKKLLCRKCKALACYTADVRVIEECHYTVLGDAFKECFVSRPHPKPKQFSSFEKRAKIFCARQNCSHDWGIHVKYKTFEIPVIKIESFVVEDIATGVQTLYSKWKDFHFEKIPFDPAEMSK
For the molecule B1, the fold reduction of the co-precipitate in the presence of 4-OI (against no 4-OI) came to 1.6 fold.

B2: GFP-tagged TBK1, Q9UHD2 1-729 (enzyme)
chain: MQSTSNHLWLLSDILGQGATANVFRGRHKKTGDLFAIKVFNNISFLRPVDVQMREFEVLKKLNHKNIVKLFAIEEETTTRHKVLIMEFCPCGSLYTVLEEPSNAYGLPESEFLIVLRDVVGGMNHLRENGIVHRDIKPGNIMRVIGEDGQSVYKLTDFGAARELEDDEQFVSLYGTEEYLHPDMYERAVLRKDHQKKYGATVDLWSIGVTFYHAATGSLPFRPFEGPRRNKEVMYKIITGKPSGAISGVQKAENGPIDWSGDMPVSCSLSRGLQVLLTPVLANILEADQEKCWGFDQFFAETSDILHRMVIHVFSLQQMTAHKIYIHSYNTATIFHELVYKQTKIISSNQELIYEGRRLVLEPGRLAQHFPKTTEENPIFVVSREPLNTIGLIYEKISLPKVHPRYDLDGDASMAKAITGVVCYACRIASTLLLYQELMRKGIRWLIELIKDDYNETVHKKTEVVITLDFCIRNIEKTVKVYEKLMKINLEAAELGEISDIHTKLLRLSSSQGTIETSLQDIDSRLSPGGSLADAWAHQEGTHPKDRNVEKLQVLLNCMTEIYYQFKKDKAERRLAYNEEQIHKFDKQKLYYHATKAMTHFTDECVKKYEAFLNKSEEWIRKMLHLRKQLLSLTNQCFDIEEEVSKYQEYTNELQETLPQKMFTASSGIKHTMTPIYPSSNTLVEMTLGMKKLKEEMEGVVKELAENNHILERFGSLTMDGGLRNVDCL
Consider B2, for which the fold reduction of the co-precipitate in the presence of 4-OI (against no 4-OI) worked out at 3.7 fold.
